# Measurements published in patent publication EP4785962A1, “ANTIBODY-DRUG CONJUGATE TARGETING TROP2, AND PREPARATION METHOD AND USE THEREFOR” (priority 2023, dated 2025).
# B1: hTINA1-DXd: control ADC: antibody hTINA1 conjugated with Linker-DXd, average DAR 4.3; TROP2-ADC from Daiichi Sankyo (conjugate, chains of the INN, looked up)
# VH: QVQLVQSGAEVKKPGASVKVSCKASGYTFTTAGMQWVRQAPGQGLEWMGWINTHSGVPKYAEDFKGRVTISADTSTSTAYLQLSSLKSEDTAVYYCARSGFGSSYWYFDVWGQGTLVTVSS
# VL: DIQMTQSPSSLSASVGDRVTITCKASQDVSTAVAWYQQKPGKAPKLLIYSASYRYTGVPSRFSGSGSGTDFTLTISSLQPEDFAVYYCQQHYITPLTFGQGTKLEIK
# modifications: deruxtecan (Linker-DXd), DAR 4.3
# notes: control ADC: antibody hTINA1 conjugated with Linker-DXd, average DAR 4.3; TROP2-ADC from Daiichi Sankyo
# Experiments:
# [1] = once every three weeks for a total of 3 times; WO2020240467A1; cited from earlier work
# [2] = system: human hypopharyngeal carcinoma squamous cell line FaDu; assay: In vitro cytotoxicity test, FaDu cells, 6 days; assay type: cell-based; details: 6 days of culture
# Procedure: 10% FBS (SH30406.05, HYCLONE) was added to RPMI 1640 (22400-071, Gibco), and the mixture was mixed well to prepare a BxPC3 cell (ATCC) growth medium. BxPC3 or FaDu cells were adjusted to a concentration of 50000 cells/mL with a growth medium, seeded into a 96-well white-bottom plate (167008, NUNC) at 50 µL per well (2500 cells/well), and incubated overnight in an incubator at 37 °C. The antibody was diluted with growth medium and serially diluted 5-fold from 200 nM (2×) to obtain 9 gradients, with the final concentration being […]. The diluted antibody-drug conjugate or control was added at 50 µL/well, and the total volume was 100 µL. […] The cell pellet was fully lysed by shaking on a plate shaker for 5 min, and the luminescence signal was stabilized by standing at room temperature for 10 min. The culture plate was tested on a microplate reader (spectra MAX i3x, Molecular Divices), the […] were taken, and the cell viability was calculated. […]
# The cell proliferation inhibition rate after 6 days of culture was calculated using the following formula.
# Cell proliferation inhibition rate (%) = […], where a: the average value of experimental sample-added wells after 6 days of culture; b: the average value of control medium-added wells after 6 days of culture. The data were fitted by GraphPad Prism and the IC50 of the drug was calculated (Table 4).
# [3] = system: Human gastric cancer cell line NCI-N87; assay: Mouse xenograft tumor model NCI-N87; assay type: in vivo, immunodeficient mice CB17-SCID; details: intraperitoneal injection
# Procedure: • 1. Mice: immunodeficient mice CB17-SCID (Vital River) aged 6-8 weeks were placed in an SPF experimental environment for 3-5 days before the experiment to better adapt to the current living environment. In all experiments, the long and short diameters of the tumor were measured twice a week using a vernier caliper, and the tumor volume (mm^3) was calculated from the measured data. The calculation formula is as follows: Tumor volume(mm^3) = 0.5 × long diameter(mm) × short diameter(mm) × short diameter(mm) [formula] • 2. Human gastric cancer cell line NCI-N87 (ATCC) cells were resuspended in 1× PBS (Gibco, 10010049) at an appropriate concentration, and the tumor cells were implanted subcutaneously in the right abdomen of the mice at an inoculation amount of 2×10^6 /mouse. When the tumor volume reached 150-200 mm^3, the mice were divided into groups such that the average initial administration volume of each group was substantially the same. After grouping, different doses of antibody-drug conjugates hRs7-DXd, hRS7-MB3 and hTINA1-DXd, or control-drug conjugates IgG-MB3, IgG-DXd and IgG control were administered by intraperitoneal injection. […] Compared with hRS7-DXd, hRS7-MB3 has a stronger tumor inhibitory effect. […] Non-small cell lung cancer cell line HCC827 cells purchased from ATCC were inoculated subcutaneously into mice (2×10^6 /mouse), and when the tumor volume reached 120-150 mm^3, the mice were grouped and administered. Different doses of the antibody-drug conjugate and the control drug were intraperitoneally injected into the mice, and the administration was performed only once throughout the experiment. The growth status of the mice was observed, and the changes in tumor volume of the mice were measured. […] The lung squamous cell carcinoma cell line LK-2 (CBP60105) purchased from Nanjing Cobioer Biosciences was implanted subcutaneously in the right abdomen of the mice at an inoculation amount of 3 × 10 ^6 cells/mouse. When the tumor volume reached 150-200 mm^3, the mice were divided into groups such that the average initial administration volume of each group was substantially the same. The mice were administered only once throughout the experiment and injected intraperitoneally at a dose of 10 mg/kg. IgG-MB3 or IgG-DXd was used as a negative control. It was observed that two TROP2-targeted ADCs were also able to delay tumor growth in a tumor model with relatively low TROP2 expression (FIG. 7). […] The pancreatic cancer cell line BxPC3 cells purchased from ATCC were implanted subcutaneously in the right abdomen of the mice at an inoculation amount of 3 × 10 ^6 cells/mouse. […]
# [4] = system: pancreatic cancer cell line BxPC3; assay: Mouse xenograft tumor model BxPC3; assay type: in vivo, immunodeficient mice CB17-SCID; details: low dose (3 mg/kg), intraperitoneal, single administration
# Procedure: • 1. Mice: immunodeficient mice CB17-SCID (Vital River) aged 6-8 weeks were placed in an SPF experimental environment for 3-5 days before the experiment to better adapt to the current living environment. In all experiments, the long and short diameters of the tumor were measured twice a week using a vernier caliper, and the tumor volume (mm^3) was calculated from the measured data. The calculation formula is as follows: Tumor volume(mm^3) = 0.5 × long diameter(mm) × short diameter(mm) × short diameter(mm) [formula] • 2. Human gastric cancer cell line NCI-N87 (ATCC) cells were resuspended in 1× PBS (Gibco, 10010049) at an appropriate concentration, and the tumor cells were implanted subcutaneously in the right abdomen of the mice at an inoculation amount of 2×10^6 /mouse. When the tumor volume reached 150-200 mm^3, the mice were divided into groups such that the average initial administration volume of each group was substantially the same. After grouping, different doses of antibody-drug conjugates hRs7-DXd, hRS7-MB3 and hTINA1-DXd, or control-drug conjugates IgG-MB3, IgG-DXd and IgG control were administered by intraperitoneal injection. […] Compared with hRS7-DXd, hRS7-MB3 has a stronger tumor inhibitory effect. […] The growth status of the mice was observed, and the changes in tumor volume of the mice were measured. […]
molecule,measurement,setting,value
B1,HNSTD,[1],30 mg/kg
same,IC50,[2],1.5 nM
same,tumor inhibitory effect,[3]; high-dose group (3 mg/kg),comparable tumor inhibitory effects
same,tumor inhibitory effect,"[3]; low dose (1 mg/kg), compared with IgG-MB3 and IgG-DXd",a certain degree of tumor inhibitory effect
same,tumor inhibitory effect,[4],equivalent tumor inhibitory effects
